The source of these data is PMC12354661.

The target of data set [1] is T1, C-type lectin-like molecule-1 (CLL-1), immobilized on magnetic beads or SPR chip (UniProt Q5QGZ9).
T1 sequence: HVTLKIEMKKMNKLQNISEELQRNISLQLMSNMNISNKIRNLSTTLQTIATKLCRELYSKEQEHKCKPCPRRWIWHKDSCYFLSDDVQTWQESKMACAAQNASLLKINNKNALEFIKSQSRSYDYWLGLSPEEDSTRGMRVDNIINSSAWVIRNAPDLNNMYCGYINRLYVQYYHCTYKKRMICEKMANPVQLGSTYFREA
The experiment in a line: flow cytometry (bead binding). As to conditions: Flow cytometry: 100 nM FAM-aptamer, 10 uL MB-CLL-1 in 200 uL DPBS, room temperature, 30 min, 150 rpm, 3 DPBS washes, SPR buffer and temperature not stated. On the technique in general: Flow cytometry measures light scatter and fluorescence of single cells or particles in a stream.

The target in data set [2] is T1, C-type lectin-like molecule-1 (CLL-1), immobilized on magnetic beads or SPR chip. The experiment in a line: SPR. As to conditions: aptamer 0.000244-0.0625 uM, Flow cytometry: 100 nM FAM-aptamer, 10 uL MB-CLL-1 in 200 uL DPBS, room temperature, 30 min, 150 rpm, 3 DPBS washes, SPR buffer and temperature not stated.

Regarding “ATTACCAGGGACCGAAGGCAAAACTATGATCGGTGG [Aptamer-2 (Apt-2)]”, the binding signal (% FITC-positive beads) came to 94.3 in data set [1] (100 nM aptamer) and 100 in data set [1] (100 nM aptamer, specificity experiment). This sequence yielded a Kd in data set [2] of 15.5 nM.
In data set [1] (100 nM aptamer, text gives 3.28), “TCGCGAAGGGTGGGGACTGCTCGGGATTGCGGATGC [Aptamer-1 (Apt-1)]” displayed a binding signal (% FITC-positive beads) of 3.26.
Regarding “CACGAACCGGGGAGGGCGGGCGGGTTGGTGTCGTGC [Aptamer-3 (Apt-3)]”, in data set [1], the binding signal (% FITC-positive beads) stood at 1.23.
The sequence “AACACTGGGGGCTGCTCGGGATTGTCGGACGTGGTG [Aptamer-4 (Apt-4)]” displayed a binding signal (% FITC-positive beads) in data set [1] (100 nM aptamer) of 2.84.

For orientation: Kd means the concentration at which binding is half-saturated. Low readings indicate a tighter complex, high ones a looser complex.
